Patent publication US20090232801A1 (ABBOT LABORATORIES, published 2009)

Key:
[1] = target: T1, Aβ(1-42) globulomer (human); experiment: dot blot densitometry; reference: Aβ(1-42) monomer
T1 construct: the definition mentions n=12-14 for late assembly forms; also called human A-beta oligomer antigen (1-42); Aβ(1-42) globular oligomer
Protocol: (§1) The dot blot was developed with a development solution made from 1 tablet of NBT/BCIP (Roche) dissolved in 20 mL H₂O for 5 min. The development was stopped by intense washing of the dot blot with H₂O. Quantitative evaluation was done using a densitometric analysis (GS800 densitometer (BioRad) and software package Quantity one, Version 4.5.0 (BioRad)) of the dot-intensity. Only the dots for 10 pmol Aβ antigen were evaluated. Results for the Discrimination of Aβ Monomer Against Aβ Globulomer by Dot Blot Method: Comparison of 8F5hum8 Versus 4G8.
(§2) The humanized monoclonal antibody 8F5hum8 (0.2 μg/ml) were used for detection with an anti-human IgG coupled to alkaline phosphatase as secondary antibody and the staining reagent NBT/BCIP (Roche Diagnostics, Mannheim). The detection signal was analyzed in its intensity (reflective density=RD) via a densitometer (GS 800, Biorad, Hercules, Calif., USA) at an antigen concentration of 10 pmol. At this concentration for every Aβ-form, the measured reflective density was in the linear range of the densitometer detection.
(§3) Discrimination of anti-Aβ-antibodies of Aβ1-40 monomer and Aβ1-42 monomer. The discrimination was calculated as the ratio of detection signal of Aβ1-42 globulomer and Aβ1-42 monomer, respectively Aβ1-40 monomer.

[2] = target: T1, Aβ(1-42) globulomer; experiment: dot blot densitometry; reference: Aβ(1-40) monomer
Protocol: as §1, §2, §3

[3] = target: T1, Aβ(1-42) globulomer; experiment: dot blot, 10 pmol antigen on nitrocellulose, 0.2 µg/ml antibody, densitometry
Protocol: as §1, §2

[4] = target: T2, Aβ(1-40) monomer (human); experiment: as above
T2 construct: Human Aβ(1-40), Bachem H-1194, HFIP treated and dissolved in DMSO; also called Aβ40
Protocol: as §1, §2

[5] = target: T3, Aβ(1-42) monomer, HFIP pretreated (human); experiment: as above
T3 construct: Human Aβ(1-42), Bachem H-1368, monomer preparation in Pluronic F68 buffer; also called Aβ42 monomer
Protocol: as §1, §2

[6] = target: T1, Aβ(1-42) globulomer; experiment: competition ELISA, average of 3 experiments: unlabelled antibody against biotinylated Mu8F5 on coated human A-beta oligomer antigen (1-42)
Protocol: (§4) MaxiSorp ELISA plates (Nalge Nunc International) were coated overnight at 4° C. with 100 μl/well of 5.0 μg/ml human A-beta oligomer antigen (1-42) (Abbott Biosciences Corporation, Worcester, Mass.) in PBS, washed with Wash Buffer (PBS containing 0.1% Tween 20), and blocked for 1 hr at room temperature with 340 μl/well of SuperBlock Blocking Buffer in PBS (Pierce Chemical Company). After washing with Wash Buffer, a mixture of biotinylated Mu8F5 (1.0 μg/ml final concentration) and competitor antibody (Mu8F5 or Hu8F5 starting at 27 μg/ml final concentration and serially diluted 3-fold) in 100 μl/well of 5% Superblock Blocking Buffer in PBS was added in triplicate. As a no-competitor control, 100 μl/well of 5% Superblock Blocking Buffer in PBS was used. After incubating the plates for 2 hrs at room temperature, and washing with Wash Buffer, bound antibodies were detected using 100 μl/well of 1 μg/ml HRP-conjugated streptavidin (Pierce Chemical Company) in 5% Superblock Blocking Buffer in PBS. After incubating for 30 min at room temperature, and washing with Wash Buffer, color development was performed by adding 100 μl/well of ABTS Peroxidase Substrate/Peroxidase Solution B (KPL). […] Absorbance was read at 415 nm.
(§5) The affinity of Hu8F5 to human A-beta oligomer antigen (1-42) was analyzed by competition ELISA as described in Materials and Methods. […]

[7] = target: T1, Aβ(1-42) globulomer; experiment: competition ELISA, Expt. 2: unlabelled antibody against biotinylated Mu8F5 on coated human A-beta oligomer antigen (1-42)
Protocol: as §4, §5

[8] = target: T1, Aβ(1-42) globulomer; experiment: competition ELISA, Expt. 1: unlabelled antibody against biotinylated Mu8F5 (1.0 µg/ml) on coated human A-beta oligomer antigen (1-42)
Protocol: as §4, §5

[9] = target: T1, Aβ(1-42) globulomer; experiment: competition ELISA, Expt. 3: unlabelled antibody against biotinylated Mu8F5 on coated human A-beta oligomer antigen (1-42)
Protocol: as §4, §5

[10] = target: T1, Aβ(1-42) globulomer; experiment: competition ELISA, Expt. 2: competitor against biotinylated Mu8F5 on coated human A-beta oligomer antigen (1-42)
Protocol: as §4, §5

[11] = target: T1, Aβ(1-42) globulomer; experiment: competition ELISA, Expt. 3: competitor against biotinylated Mu8F5 on coated human A-beta oligomer antigen (1-42)
Protocol: as §4, §5

[12] = target: T1, Aβ(1-42) globulomer; experiment: competition ELISA, Expt. 1: competitor against biotinylated Mu8F5 on coated human A-beta oligomer antigen (1-42)
Protocol: as §4, §5

[13] = target: T1, Aβ(1-42) globulomer; experiment: competition ELISA, average of 3 experiments: competitor against biotinylated Mu8F5 on coated human A-beta oligomer antigen (1-42)
Protocol: as §4, §5

T1 sequence (peptide, as listed by the source): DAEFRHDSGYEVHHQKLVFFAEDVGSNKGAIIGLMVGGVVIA
T2 sequence (peptide, as listed by the source): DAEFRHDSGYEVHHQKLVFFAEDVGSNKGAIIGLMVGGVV

B1: humanized monoclonal antibody 8F5hum8 (antibody, V domains shown)
VH: EVQLVESGGGLVQPGGSLRLSCAASGFTFSSYGMSWVRQAPGKGLELVASINSNGGSTYYPDSVKGRFTISRDNAKNTLYLQMNSLRAEDTAVYYCASGDYWGQGTLVTVSS
VL: DIVMTQSPLSLPVTPGEPASISCRSSQSLVYSNGDTYLHWYLQKPGQSPKLLIYKVSNRFSGVPDRFSGSGSGTDFTLKISRVEAEDVGVYYCSQSTHVPWTFGGGTKVEIKR
notes: It was detected with anti-human IgG; also called humanized antibody 8F5; mMAb 8F5hum8
Ratio RD Aβ(1-42) globulomer/RD Aβ(1-42) monomer [1]: 1.6 | Ratio RD Aβ(1-42) globulomer/RD Aβ(1-40) monomer [2]: 59 | Reflective Density (RD) [10 pmol] [3]: 2.2 RD | Reflective Density (RD) [10 pmol] [4]: 0.04 RD | Reflective Density (RD) [10 pmol] [5]: 1.3 RD

B2: murine monoclonal antibody 8F5 (antibody, V domains shown)
VH: EVQLVESGGGLVQPGGSLKLSCAASGFTFSSYGMSWVRQTPDKRLELVASINSNGGSTYYPDSVKGRFTISRDNAKNTLYLQMSSLKSEDTAMYYCASGDYWGQGSTLTVSS
VL: DVVMTQTPLSLPVSLGDQASISCRSSQSLVYSNGDTYLHWYLQKPGQSPKLLIYKVSNRFSGVPDRFSGSGSGTDFTLKISRVEAEDLGVYFCSQSTHVPWTFGGGTKLEIK
notes: Mouse monoclonal antibody; also called Mu8F5; mouse 8F5 antibody
IC50 [6]: 5.08 µg/mL | IC50 [7]: 4.87 µg/mL | IC50 [8]: 4.58 µg/mL | IC50 [9]: 5.81 µg/mL

B3: Hu8F5v1 (humanized 8F5, heavy chain version 1) (antibody, V domains shown)
VH: EVQLVESGGGLVQPGGSLRLSCAASGFTFSSYGMSWVRQAPGKGLEWVASINSNGGSTYYPDSVKGRFTISRDNAKNTLYLQMNSLRAEDTAVYYCASGDYWGQGTLVTVSS
VL: DIVMTQSPLSLPVTPGEPASISCRSSQSLVYSNGDTYLHWYLQKPGQSPKLLIYKVSNRFSGVPDRFSGSGSGTDFTLKISRVEAEDVGVYYCSQSTHVPWTFGGGTKVEIK
notes: Human IgG1/kappa, expressed in 293T/17 cells from modified pVg1.D.Tt (gamma-1 changed to z, non-a allotype: D356E, L358M, EU index) and pVk; also called Hu8F5VHv1 + Hu8F5VL
IC50 [10]: 6.85 µg/mL | IC50 [11]: 5.93 µg/mL | IC50 [12]: 6.28 µg/mL | IC50 [13]: 6.36 µg/mL

B4: Hu8F5v2 (humanized 8F5, heavy chain version 2) (antibody, human IgG1, V domains shown)
VH: EVQLVESGGGLVQPGGSLRLSCAASGFTFSSYGMSWVRQAPGKGLELVASINSNGGSTYYPDSVKGRFTISRDNAKNTLYLQMNSLRAEDTAVYYCASGDYWGQGTLVTVSS
VL: DIVMTQSPLSLPVTPGEPASISCRSSQSLVYSNGDTYLHWYLQKPGQSPKLLIYKVSNRFSGVPDRFSGSGSGTDFTLKISRVEAEDVGVYYCSQSTHVPWTFGGGTKVEIK
notes: Human IgG1/kappa, as for Hu8F5v1; The heavy chain differs from version 1 by the additional mouse residue at position 47 (W47L mutation of the Hu8F5VH gene); also called Hu8F5VHv2 + Hu8F5VL
IC50 [10]: 8.12 µg/mL | IC50 [11]: 6.56 µg/mL | IC50 [12]: 6.29 µg/mL | IC50 [13]: 6.99 µg/mL
